Data on one molecule can be found in publication PMC5105194 (Nature Communications, 2016).

This assay has as its target full-length human VPS29 (human, UniProt Q9UBQ0 1-182). Briefly: ITC; TBC proteins (100∼200 μM) injected into retromer proteins (8–16 μM); 20 °C; 20 mM Tris pH 8, 200 mM NaCl, 5 mM βME; one set of sites model. The settings on record: both partners purified. For orientation: Isothermal titration calorimetry measures the heat released or taken up as one component is titrated into another.

B1: TBC1d5 Ins1 peptide (peptide)
peptide: GQQDLMINNPLSQDEGSLWNKFFQDKE
notes: TBC1d5 residues 132–158 (Insertion 1 region); The limits are told for the crystallised peptide; source: expressed as MBP fusion, purified (Amylose resin, TEV cleavage, Ni-NTA, Superdex 75); not shown: His6, C-terminal, kept
As for B1, the binding result is on record as “binds”.
